# From the supplement of paper PMC10567573
# ± gives the standard deviation.
# Assay: protein stability index of a GFP-peptide fusion (GPS, HEK-293T) (PSI 1-6); higher = more stable
# Conditions: c terminus: a fixed tail appended
# 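Note: 24-mer peptide tiles fused after GFP, lentivirally expressed, FACS-sorted into six equal bins by GFP/DsRed ratio, decoded by Illumina sequencing, PSI is the read-weighted mean bin number.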
Sequence,protein stability index (treatment: DMSO),"protein stability index (treatment: MLN4924 1 uM, 8 h)"
RTIVEEVQDGKVISSREQVHQTTR [KRT17],4.69 ± 0.25,5.01 ± 0.38
DKPGTTQIVQLTQQVDTNISVILP [DENND6A],3.48 ± 0.23,3.68 ± 0.38
NQLILTASADRTVIVWDGDTTRQV [WDR41],2.79 ± 0.2,3.12 ± 0.2
PHPDLPAEEKEQLLHNDEYQETMV [USP39],5.35 ± 0.24,5.55 ± 0.21
MDIESLSVFTEPNRHFYREMQSFS [FBXO33],2.39 ± 0.33,2.3 ± 0.24
DVTGSVKSERRNLLEDDSDEEEDF [VAMP4],5.57 ± 0.14,5.66 ± 0.25
RYMLTRDYLTVKVWDLNMEARPIE [PPP2R2C],2.51 ± 0.3,2.37 ± 0.24
VGQDNGAVMEFHVSEDFNKMNFIK [WDFY1],3.29 ± 1.1,3.14 ± 0.36
LRLENSSLFSQALKDEEAKVLQLT [CCDC89],3.6 ± 0.41,3.62 ± 0.61
LPSLGCRTSCSSRPCVPPSCHGYT [KRT34],2.32 ± 0.26,2.2 ± 0.11
AEEAESHFSSIPDAFWWAVVSMTT [KCNA1],2.11 ± 0.31,2.1 ± 0.24
PCLCLSWEEAQSPANCPACREPSP [TRIM43],4.74 ± 0.24,4.79 ± 0.15
EHVLMFAKLALYPCASLLAFASTC [TMEM175],3.42 ± 0.23,3.14 ± 0.5
KGHNTPKDIAHFWELGGGTSLLDL [DYNC2LI1],3.02 ± 0.28,3.2 ± 0.11
ILNSMNSLRKSNTLCDVTLRVEQK [KLHL12],2.65 ± 0.18,2.9 ± 0.33
LRKHRELCDVVLVVGAKKIYAHRV [KLHL20],2.67 ± 0.5,2.3 ± 0.43
VEQGERALERRRRALQEEERAAAQ [ZBED3],5.5 ± 0.2,5.29 ± 0.38
AKSRAEAALEEESRQRQSRMEKGE [SMARCE1],5.55 ± 0.22,5.38 ± 0.22
ACKSLQTRQNGIQTNKPALRAVRQ [STX5],4.07 ± 0.17,3.95 ± 0.2
ICKEVQAEQEPTRKLFEVESVTHH [SPAG8],4.47 ± 0.12,4.77 ± 0.07
EDQHKLYQQIKAGAYDFPSPEWDT [CAMK2B],4.79 ± 0.17,4.75 ± 0.12
PHGTLRVCTISSTGPLQPQPKKPE [PKD2L1],4.42 ± 0.27,4.5 ± 0.3

Sequence,protein stability index (treatment: DMSO),"protein stability index (treatment: MLN4924 1 uM, 8 h)"
NTPFQLSIAPPEAEGVVLSDSPDA [PPTC7],5.41 ± 0.15,5.37 ± 0.18
RPIIASISSGVVSIWAQNQVENWS [RBBP5],2.22 ± 0.34,2.26 ± 0.42
SKAKPKPPKQAQKEQRKQMKGRGQ [TBC1D10A],5.02 ± 0.23,5.08 ± 0.31
SEFQAALSRKVAELVHFLLLKYRA [MAGEA3],2.57 ± 0.56,2.48 ± 0.51
DRLTTFQENQARTHVLSKEVQHLR [LRRC45],4.12 ± 0.13,4.29 ± 0.16
YSTRYGSPKRQLQFYRNLGKSGLR [KCNAB2],2.59 ± 0.18,2.69 ± 0.19
TTMNYPLWSQSYEDSSNQEEEGPS [MAGEA3],5.43 ± 0.11,5.36 ± 0.13
MAVRLAGGLQKMVALLNKTNVKFL [CTNNB1],2.871 ± 0.006,2.63 ± 0.76
ELGQAVEVIYPQHSKLTDREKTNI [DENND6A],3.69 ± 0.35,4.28 ± 0.21
PSLPSCLCSFLLLLLLQVSSSYAG [MOG],2.44 ± 0.048,2.77 ± 0.34
AFGAPIGGTLFSLEEGSSFWNQGL [CLCN6],2.47 ± 0.27,2.47 ± 0.35
QLELVILQSEPHRAGVQWKFAGSF [KCNK9],2.7 ± 0.54,2.59 ± 0.44
LSCLGQQQQEPPLAMGTVSLGQLP [PLAGL1],3.75 ± 0.32,3.59 ± 0.5
SALGRQRLQDISSLPLPQSLKNYL [SPSB4],2.85 ± 0.11,3.27 ± 0.6
LYGFLLTFGFITMTPQLFINYKLK [CLPTM1],3.12 ± 0.64,3.44 ± 0.32
YLIIRTLGKLIPRHQSIFKSNGFF [CDKL4],2.74 ± 1.3,2.72 ± 1.8
PALDSLAYEYEREGLYEQAFQLLR [TRADD],2.64 ± 0.15,2.9 ± 0.29
LLLLLLTFFLRTDAETPPRFTRTP [PTPRD],2.32 ± 0.43,2.36 ± 0.49
ERSVFSERTEESSAVQYFQFYGYL [CARM1],2.08 ± 0.1,2.23 ± 0.25
LELLEEVLALGLRTDVGITHQHWQ [RSAD1],2.3 ± 0.72,2.13 ± 0.23
VNLYLGRSHFLWKEPATMSWLEEN [TCF25],2.36 ± 0.53,2.54 ± 0.56
SVKKQGETVADVRTLPNASTVDNI [MLH1],5.12 ± 0.12,5.25 ± 0.14
